From patent publication US20160159862A1 (PROTAGONIST THERAPEUTICS, published 2016) come the findings set out here.

Assay [1] has as its target rh integrin α4β7 (R&D Systems #5397-A30) (human) (UniProt P13612). The experiment in a line: α4β7-MAdCAM competition ELISA. (In general: ELISA stands for enzyme-linked immunosorbent assay.)
Assay [2] has as its target α4β7 integrin on human cells (human, UniProt P13612 34-1032; P26010 20-798). Nature of the assay: cell-based or functional assay.
Assay [3] deals with α4β1 (R&D Systems #5668-A4) (UniProt P13612). Nature of the assay: α4β1-VCAM competition ELISA.

Bridge positions count the residues as written; N and C are the ends. Square brackets hold non-standard residues; d marks the D form. Ends that are not written are not given here. Bip = N[C@@H](Cc1ccc(-c2ccccc2)cc1)C(=O)O; 1Nal = N[C@@H](Cc1cccc2ccccc12)C(=O)O; 2Nal = N[C@@H](Cc1ccc2ccccc2c1)C(=O)O; d1Nal = N[C@H](Cc1cccc2ccccc12)C(=O)O; d2Nal = N[C@H](Cc1ccc2ccccc2c1)C(=O)O; NMeR = CN[C@@H](CCCNC(=N)N)C(=O)O; β3hE = N[C@@H](CCC(=O)O)CC(=O)O; NMeK = CN[C@@H](CCCCN)C(=O)O; Pen = CC(C)(S)[C@H](N)C(=O)O; dNMeK = CN[C@H](CCCCN)C(=O)O

B1: SEQ ID NO 12 (peptide)
peptide: Ac-[Pen][NMeR]SDTL[Pen][1Nal][dE][dNMeK]-NH2
modifications: disulfide 1-7
SMILES: CC(=O)N[C@@H]1C(=O)N(C)[C@@H](CCCNC(=N)N)C(=O)N[C@@H](CO)C(=O)N[C@@H](CC(=O)O)C(=O)N[C@@H]([C@@H](C)O)C(=O)N[C@@H](CC(C)C)C(=O)N[C@H](C(=O)N[C@@H](Cc2cccc3ccccc23)C(=O)N[C@H](CCC(=O)O)C(=O)N(C)[C@H](CCCCN)C(N)=O)C(C)(C)SSC1(C)C
The IC50 is the midpoint of a concentration-inhibition curve. The molecule B1 gave an IC50 in assay [1] greater than 25 nM.
Turning to Ac-[Pen][NMeR]SDTL[Pen][1Nal][dE][dK]-NH2 (disulfide 1-7 (inferred); also: homodimer via DIG linker) [SEQ ID NO 32], the “α4β7 cell (Hu) IC50” value in assay [2] is greater than 10 nM. Also, the IC50 in assay [1] is less than 10 nM; in assay [3], greater than 100 nM.
As for Ac-[Pen][NMeR]SDTL[Pen][Bip]E[dK]-NH2 (disulfide 1-7 (inferred); also: homodimer via DIG) [SEQ ID NO 134], the “α4β7 cell (Hu) IC50” value in assay [2] was no more than 10 nM. The IC50 in assay [1] is less than 10 nM; in assay [3], greater than 100 nM.
Turning to Ac-[Pen][NMeR]SDTL[Pen][2Nal][dE][dK]-NH2 (disulfide 1-7 (inferred); also: homodimer via DIG linker) [SEQ ID NO 29], the “α4β7 cell (Hu) IC50” value in assay [2] was greater than 10 nM. Besides, in assay [1], the IC50 was less than 10 nM.
On to Ac-[Pen][NMeR]SDTL[Pen][1Nal][dE][dNMeK]-NH2 (disulfide 1-7 (inferred); also: homodimer via DIG linker) [SEQ ID NO 38], for which the “α4β7 cell (Hu) IC50” value in assay [2] is no more than 10 nM. Also, the half-inhibitory concentration (IC50) was less than 10 nM in assay [1] and greater than 100 nM in assay [3].

B2: SEQ ID NO 11 (peptide)
peptide: Ac-[Pen][NMeR]SDTL[Pen][d2Nal]E[dK]-NH2
modifications: disulfide 1-7
SMILES: CC(=O)N[C@@H]1C(=O)N(C)[C@@H](CCCNC(=N)N)C(=O)N[C@@H](CO)C(=O)N[C@@H](CC(=O)O)C(=O)N[C@@H]([C@@H](C)O)C(=O)N[C@@H](CC(C)C)C(=O)N[C@H](C(=O)N[C@H](Cc2ccc3ccccc3c2)C(=O)N[C@@H](CCC(=O)O)C(=O)N[C@H](CCCCN)C(N)=O)C(C)(C)SSC1(C)C
Consider B2, for which the IC50 in assay [1] is greater than 25 nM.
For Ac-[Pen][NMeR]SDTL[Pen][2Nal]E[NMeK]-NH2 (disulfide 1-7 (inferred); also: homodimer via DIG) [SEQ ID NO 138], the “α4β7 cell (Hu) IC50” value in assay [2] is greater than 10 nM. The molecule further came in with an IC50 in assay [1] greater than 10 nM.
With Ac-[Pen][NMeR]SDTL[Pen][2Nal]E[dNMeK]-NH2 (disulfide 1-7 (inferred); also: homodimer via DIG linker) [SEQ ID NO 41], the “α4β7 cell (Hu) IC50” value in assay [2] is no more than 10 nM. Further, the IC50 in assay [1] was less than 10 nM; in assay [3], greater than 100 nM.

B3: SEQ ID NO 88 (peptide)
peptide: Ac-[Pen][NMeR]SDTL[Pen][2Nal][dK]-NH2
modifications: disulfide 1-7
SMILES: CC(=O)N[C@@H]1C(=O)N(C)[C@@H](CCCNC(=N)N)C(=O)N[C@@H](CO)C(=O)N[C@@H](CC(=O)O)C(=O)N[C@@H]([C@@H](C)O)C(=O)N[C@@H](CC(C)C)C(=O)N[C@H](C(=O)N[C@@H](Cc2ccc3ccccc3c2)C(=O)N[C@H](CCCCN)C(N)=O)C(C)(C)SSC1(C)C
Take B3: the 50% inhibitory concentration (IC50) in assay [1] is greater than 10 nM.
For the molecule Ac-[Pen][NMeR]SDTL[Pen][2Nal][dE][dNMeK]-NH2 (disulfide 1-7 (inferred)) [SEQ ID NO 13], the “α4β7 cell (Hu) IC50” value in assay [2] was greater than 100 nM. This molecule also displayed an IC50 in assay [1] greater than 10 nM.
With Ac-[Pen][NMeR]SDTL[Pen][1Nal][β3hE][NMeK]-NH2 (disulfide 1-7 (inferred); also: homodimer via DIG) [SEQ ID NO 142], in assay [2], the “PBMC IC50” value was greater than 50 nM and the “α4β7 cell (Hu) IC50” value was no more than 10 nM. In assay [1], this molecule yielded a 50% inhibitory concentration (IC50) of less than 10 nM. This molecule also registered an IC50 in assay [3] greater than 500 nM.

B4: SEQ ID NO 10 (peptide)
peptide: Ac-[Pen][NMeR]SDTL[Pen][d1Nal]E[dK]-NH2
modifications: disulfide 1-7
SMILES: CC(=O)N[C@@H]1C(=O)N(C)[C@@H](CCCNC(=N)N)C(=O)N[C@@H](CO)C(=O)N[C@@H](CC(=O)O)C(=O)N[C@@H]([C@@H](C)O)C(=O)N[C@@H](CC(C)C)C(=O)N[C@H](C(=O)N[C@H](Cc2cccc3ccccc23)C(=O)N[C@@H](CCC(=O)O)C(=O)N[C@H](CCCCN)C(N)=O)C(C)(C)SSC1(C)C
B4 yielded an IC50 in assay [1] greater than 10 nM.
Consider Ac-[Pen][NMeR]SDTL[Pen][1Nal]E[dK]-NH2 (disulfide 1-7 (inferred); also: homodimer via DIG) [SEQ ID NO 24], for which the “α4β7 cell (Hu) IC50” value in assay [2] was no more than 10 nM. For the same molecule, the 50% inhibitory concentration (IC50) in assay [1] is less than 10 nM; in assay [3], greater than 100 nM.

B5: SEQ ID NO 18 (peptide)
peptide: Ac-[Pen][NMeR]SDTL[Pen][1Nal]E[dNMeK]-NH2
modifications: disulfide 1-7
SMILES: CC(=O)N[C@@H]1C(=O)N(C)[C@@H](CCCNC(=N)N)C(=O)N[C@@H](CO)C(=O)N[C@@H](CC(=O)O)C(=O)N[C@@H]([C@@H](C)O)C(=O)N[C@@H](CC(C)C)C(=O)N[C@H](C(=O)N[C@@H](Cc2cccc3ccccc23)C(=O)N[C@@H](CCC(=O)O)C(=O)N(C)[C@H](CCCCN)C(N)=O)C(C)(C)SSC1(C)C
For the molecule B5, the values for the IC50 in assay [1] and in assay [3] were greater than 10 nM and greater than 500 nM, respectively.
In the case of Ac-[Pen][NMeR]SDTL[Pen][2Nal][dE][dK]-NH2 (disulfide 1-7 (inferred)) [SEQ ID NO 9], in assay [2], the “α4β7 cell (Hu) IC50” value is greater than 100 nM. The same molecule returned an IC50 in assay [1] greater than 10 nM.
As to Ac-[Pen][NMeR]SDTL[Pen][2Nal]Y[dK]-NH2 (disulfide 1-7 (inferred); also: homodimer via DIG) [SEQ ID NO 23], the “α4β7 cell (Hu) IC50” value in assay [2] was no more than 10 nM. Moreover, the half-inhibitory concentration (IC50) in assay [3] was greater than 100 nM.

B6: SEQ ID NO 143 (peptide)
peptide: [Pen][NMeR]SDTL[Pen][2Nal]E
modifications: disulfide 1-7 (inferred); not fully specified (bridges); printed as Cyclo-[Pen-(N-Me-R)-S-D-T-L-Pen-(2-Nal)-E], disulfide
For B6, in assay [2], the “α4β7 cell (Hu) IC50” value is greater than 10000 nM. For the same molecule, in assay [1], the IC50 turned out to be 250 nM.
For the molecule Ac-[Pen][NMeR]SDTL[Pen][2Nal][β3hE][dK]-NH2 (disulfide 1-7 (inferred); also: homodimer via DIG) [SEQ ID NO 137], the “α4β7 cell (Hu) IC50” value in assay [2] was no more than 10 nM. The IC50 in assay [1] is less than 10 nM; in assay [3] it was greater than 1000 nM.
